Substrate: O=C(O)C1=C[C@@H](O)[C@@H](O)[C@H](O)C1
Test: purified protein
Format: biochemical, Marchantia polymorpha
Conditions: 2.5 mM ATP, 1 mM MgCl2, 50 mM Tris-HCl pH 7.5, 200 mM NaCl, 30 °C, shikimate 0-3 mM

B1: MpSK (Δ113MpSK) (Marchantia polymorpha) (protein)
chain: QYSLELQEDEELLKKKAALVVQQLAGSCIFLVGMMGSGKTTVGKHVSEALGYYFFDSDKLVEESRGKTVAEMFRYGREEEFRNAESEVLEQLSSMVRLVVATGGGAVVRPENWSYLRHGITVWLDVPVDSLAERVVAVGCHSRPLLGVQAHDSAYKQALERLTHILQERADFYASADAVVSVEELARKRGQDINSITPTMIAVQVLEEISKMLERGDRDPSLQY
notes: N-terminal 113 residues (predicted chloroplast transit peptide) removed; cloned from Tak-2 cDNA; pET28a-MOD, C-terminal His6 cleaved by TEV; E. coli BL21-CodonPlus
Km: 782.5 µM
kcat: 1.0 s⁻¹

From paper PMC12203367, “Shikimate Kinase-Like 1 Participates in an Ancient and Conserved Role Contributing to Chloroplast Biogenesis in Land Plants” (Molecular Biology and Evolution, 2025)
